In patent US10774129B2, “Complexes of types of MHC class II that bind to collagen type II peptides and their use on diagnosis and treatment” (FRAUNHOFER-GESELLSCHAFT ZUR FÖRDERUNG DER ANGEWANDTEN …, priority 2011, dated 2020):
Square brackets hold non-standard residues; d marks the D form. Ends that are not written are not given here. Cit = NC(=O)NCCC[C@H](N)C(=O)O

Experiments:
Test in all cases: in vitro binding assay to recombinant MHC class II protein
[1] = molecular target: MHC class II of the HLA DRB1 0101 genotype (Homo sapiens, UniProt P01903+P01911, A100R/D57E/F55L/F60I/F76Y/I96L/L162R/M171V/P40L/Q125E/R42F/V115G/Y59C); set-up: key: *0101: the listing of the allele in the column for the allele indicates binding; *0401: “0401” in the “Binds to 0401” column indicates binding of the peptide to MHC class II of the HLA DRB1 0401 genotype; *0404: the listing of the allele in the column for the allele indicates binding; *0405: the listing of the allele in the column for the allele indicates binding; *0408: the listing of the allele in the column for the allele indicates binding; *1001: the listing of the allele in the column for the allele indicates binding; “no” or no data indicates no binding to a protein of that genotype
Source text: (§1) Binding of the peptides to recombinant MHC class II protein of various alleles has been confirmed in an in vitro binding assay and the results are shown in Tables 1, 2 and 3. In table 1, 2 and 3, the listing of the allele in the column for the allele indicates binding. Thus “0401” in the “Binds to 0401” column indicates binding of the peptide to MHC class II of the HLA DRB1 0401 genotype. “no” or no data indicates no binding to a protein of that genotype. Empty boxes indicate no binding or that binding has not been determined. In the tables it is also indicated if the peptide has a citrulline residue, where “yes” indicates the presence of a citrulline residue and “no” indicates the absence of a citrulline residue.

[2] = molecular target: MHC class II of the HLA DRB1 0404 genotype (Homo sapiens, UniProt P01903+P01911, A100R/A169T/F76Y/I96L/K127E/L162R/M171V/N62H/P40V/Q125Y/R42H/S133A/S149N/S66Y/V209L/W38E); set-up: key: *0101: the listing of the allele in the column for the allele indicates binding; *0401: “0401” in the “Binds to 0401” column indicates binding of the peptide to MHC class II of the HLA DRB1 0401 genotype; *0404: the listing of the allele in the column for the allele indicates binding; *0405: the listing of the allele in the column for the allele indicates binding; *0408: the listing of the allele in the column for the allele indicates binding; *1001: the listing of the allele in the column for the allele indicates binding; “no” or no data indicates no binding to a protein of that genotype
Source text: as §1

[3] = molecular target: MHC class II of the HLA DRB1 0405 genotype (Homo sapiens, UniProt P01903+P01911, A100R/A169T/D86S/F76Y/I96L/K127E/L162R/M171V/N62H/P40V/Q125Y/R42H/S133A/S149N/S66Y/V115G/V209L/W38E); set-up: key: *0101: the listing of the allele in the column for the allele indicates binding; *0401: “0401” in the “Binds to 0401” column indicates binding of the peptide to MHC class II of the HLA DRB1 0401 genotype; *0404: the listing of the allele in the column for the allele indicates binding; *0405: the listing of the allele in the column for the allele indicates binding; *0408: the listing of the allele in the column for the allele indicates binding; *1001: the listing of the allele in the column for the allele indicates binding; “no” or no data indicates no binding to a protein of that genotype
Source text: as §1

[4] = molecular target: MHC class II of the HLA DRB1 0401 genotype (Homo sapiens, UniProt P01903+P01911, A100K/A169T/F76Y/I96L/K127E/L162R/M171V/N62H/P40V/Q125Y/R42H/S133A/S149N/S66Y/V115G/V209L/W38E); set-up: key to Binds to 0401: *0101: the listing of the allele in the column for the allele indicates binding; *0401: “0401” in the “Binds to 0401” column indicates binding of the peptide to MHC class II of the HLA DRB1 0401 genotype; *0404: the listing of the allele in the column for the allele indicates binding; *0405: the listing of the allele in the column for the allele indicates binding; *0408: the listing of the allele in the column for the allele indicates binding; *1001: the listing of the allele in the column for the allele indicates binding; “no” or no data indicates no binding to a protein of that genotype; details: recombinant MHC class II, HLA DRB1 0401
Source text: as §1
Thus for these peptides no binding to HLA-DR0401 was observed when citrulline was exchanged with the original amino acid arginine (Table 4). No binding of the citrullinated peptides was seen to HLA-DR 03 or 02 variants.

[5] = system: MHC class II of the HLA DRB1 0408 genotype; set-up: species or system human; key: *0101: the listing of the allele in the column for the allele indicates binding; *0401: “0401” in the “Binds to 0401” column indicates binding of the peptide to MHC class II of the HLA DRB1 0401 genotype; *0404: the listing of the allele in the column for the allele indicates binding; *0405: the listing of the allele in the column for the allele indicates binding; *0408: the listing of the allele in the column for the allele indicates binding; *1001: the listing of the allele in the column for the allele indicates binding; “no” or no data indicates no binding to a protein of that genotype
Source text: as §1

[6] = system: MHC class II of the HLA DRB1 1001 genotype; set-up: species or system human; key to Binds to 1001: *0101: the listing of the allele in the column for the allele indicates binding; *0401: “0401” in the “Binds to 0401” column indicates binding of the peptide to MHC class II of the HLA DRB1 0401 genotype; *0404: the listing of the allele in the column for the allele indicates binding; *0405: the listing of the allele in the column for the allele indicates binding; *0408: the listing of the allele in the column for the allele indicates binding; *1001: the listing of the allele in the column for the allele indicates binding; “no” or no data indicates no binding to a protein of that genotype; details: recombinant MHC class II, HLA DRB1 1001
Source text: as §1

| Substance | Binds to 0101 [1] | Binds to 0404 [2] | Binds to 0405 [3] | Binds to 0401 [4] | Binds to 0408 [5] | Binds to 1001 [6] |
| --- | --- | --- | --- | --- | --- | --- |
| a-enolase 1: human alpha-enolase peptide, not citrullinated (MSILKIHAREIFDSR; listed as Homo sapiens) | *0101 | *0404 | *0405 | no | no | *1001 |
| type II collagen 242: human collagen type II peptide, not citrullinated (GIVGLPGQRGERGFP; listed as Homo sapiens) | *0101 | *0404 | *0405 | *0401 |  |  |
| type II collagen 263: human collagen type II peptide, not citrullinated (GDRGEAGAQGPMGPS; listed as Homo sapiens) |  |  |  |  |  | *1001 |
| type II collagen 268: human collagen type II peptide, not citrullinated (PQGPRGDKGEAGEPG; listed as Homo sapiens) |  |  |  |  |  | *1001 |
| type II collagen 362: citrullinated human collagen type II peptide (PKGANGDPG[Cit]PGEPG; listed as Homo sapiens) |  |  |  |  |  | *1001 |
| type II collagen 384: citrullinated human collagen type II peptide (QGP[Cit]GLPGTPGTDGP; listed as Homo sapiens) |  |  |  |  | *0408 | *1001 |
| type II collagen 411: citrullinated human collagen type II peptide (GIVGLPGQ[Cit]GE[Cit]GFP; listed as Homo sapiens) |  | *0404 | *0405 | *0401 |  |  |
| vimentin 1: human vimentin peptide, not citrullinated (MSTRSVSSSSYRRMF; listed as Homo sapiens) | *0101 | *0404 | no | *0401 |  |  |
| vimentin 3: human vimentin peptide, not citrullinated (YRRMFGGPGTASRPS; listed as Homo sapiens) | *0101 | *0404 | *0405 | *0401 |  |  |
| vimentin 33: human vimentin peptide, not citrullinated (VDQLTNDKARVEVER; listed as Homo sapiens) | no | *0404 | no | *0401 |  |  |
| vimentin 34: human vimentin peptide, not citrullinated (NDKARVEVERDNLAE; listed as Homo sapiens) | no |  | no | *0401 |  |  |
| vimentin 41: human vimentin peptide, not citrullinated (NTLQSFRQDVDNASL; listed as Homo sapiens) |  | *0404 | *0405 | *0401 |  |  |
| vimentin 64: human vimentin peptide, not citrullinated (STEYRRQVQSLTCEV; listed as Homo sapiens) | *0101 |  | *0405 | *0401 |  |  |
| vimentin 77: human vimentin peptide, not citrullinated (REYQDLLNVKMALDI; listed as Homo sapiens) | *0101 |  | *0405 |  |  |  |
| vimentin 81: human vimentin peptide, not citrullinated (RKLLEGEESRISLPL; listed as Homo sapiens) | no | no | no | *0401 |  |  |
| vimentin 104: citrullinated human vimentin peptide (SPGGVYAT[Cit]SSAV[Cit]L; listed as Homo sapiens) | *0101 | *0404 | no | *0401 |  |  |
| vimentin 105: citrullinated human vimentin peptide (YAT[Cit]SSAV[Cit]L[Cit]SSVP; listed as Homo sapiens) | *0101 | no | no | *0401 |  |  |
| vimentin 106: citrullinated human vimentin peptide (SAV[Cit]L[Cit]SSVPGV[Cit]LL; listed as Homo sapiens) | *0101 | *0404 | *0405 | *0401 |  |  |
| vimentin 108: citrullinated human vimentin peptide (GVXLLQDSVDFSLAD; citrullinated; MOD_RES (3)..(3) Citrulline; listed as Homo sapiens) | no | no | no | *0401 |  |  |
| vimentin 111: citrullinated human vimentin peptide (FKNT[Cit]TNEKVELQEL; listed as Homo sapiens) | *0101 | No | no | *0401 |  |  |
| vimentin 117: citrullinated human vimentin peptide (LLAELEQLKGQGKS[Cit]; listed as Homo sapiens) | *0101 | No | no |  |  |  |
| vimentin 133: citrullinated human vimentin peptide (DNASLA[Cit]LDLE[Cit]KVE; listed as Homo sapiens) | no | No | no | *0401 |  |  |
| vimentin 166: citrullinated human vimentin peptide (THSK[Cit]TLLIKTVET[Cit]; listed as Homo sapiens) | no | *0404 | no | no |  |  |
